Assay results from the DeepSol protein solubility set.

Assay: soluble on expression in E. coli; label from the status in PepcDB or PDB records

| Sequence | soluble on expression in E. coli |
| --- | --- |
| MGSDKIHHHHHHMPVDSKHPLWLANQPRWERCRTALQGRDAVHAAGEKYLPKLAGQDKAEYDAYKGRAMFYGATARTEEALIGMVFRKEPTVTLPAALQPMIEDADLAGTPVDTFIENVTKEVIDVTRVGVLVDYPVASGEFMTVGQAQAAGMRPYLATYKAEAIINWRTARVRGVNQLVLVVLAECYTDPKDEFTAEEKTQYRVLDLVDGFYRVRIYRTDLNTPAFEYTPMMNGKRLPYIPFVLIGRNGEAIDPQKPVLLDLVDVNMSHYRGTADYEHALHFTALPTAVVIGHELKEGQALKIGSSEAWVFTDPQADAKYLEFSGQGLDSIKVSLERKEGMMATLGARILAPEKRDAEAAETAKIHRAGENSVLGGIALGVGRSLAKAFRWAAEWAGAGSGTVEVKLNTEFFPAGLTAQDLTALVGALQAAAISPQTFYDNMRRGSIIDDGVTFEEEQDRIEAAGPALGTLGGQDVKPANGAV | not soluble |
| MKWGFRWYGAAGDAIPLKHIRQIPGITGVVGTLLNKLPGDVWTVAEIQALKQSVEQEGLALLGIESVAIHDAIKAGTDQRDHYIDNYRQTLRNLGKCGISLVCYSFKPIFGWAKTDLAYENEDGSLSLLFDQAVVENMQPEDMYQLIHSQSKGFRLPGWEEERLQQFQELKAMYAGVTEEDLVENLRYFLERVIPVCEEENIKMGIHPDDPPWEIFGLPRITKNLADLKRILSLVDSPANGITFCTGSLGADPTNDLPTMIREIGHRINFVHFRNVKYLGEHRFEETAHPSVAGSLDMAELMQALVDVGYEGVIRPDHGRAIWDEKAMPGYGLYDRAMGLTYIQGLYEATKAKQNRKLEHHHHHH | soluble |
| MVPAAQQTATAPDAALTFPEGFLWGSATASYQIEGAAAEDGRTPSIWDTYARTPGRVRNGDTGDVATDHYHRWREDVALMAELGLGAYRFSLAWPRIQPTGRGPALQKGLDFYRRLADELLAKGIQPVATLYHWDLPQELENAGGWPERATAERFAEYAAIAADALGDRVKTWTTLNEPWCSAFLGYGSGVHAPGRTDPVAALRAAHHLNLGHGLAVQALRDRLPADAQCSVTLNIHHVRPLTDSDADADAVRRIDALANRVFTGPMLQGAYPEDLVKDTAGLTDWSFVRDGDLRLAHQKLDFLGVNYYSPTLVSEADGSGTHNSDGHGRSAHSPWPGADRVAFHQPPGETTAMGWAVDPSGLYELLRRLSSDFPALPLVITENGAAFHDYADPEGNVNDPERIAYVRDHLAAVHRAIKDGSDVRGYFLWSLLDNFEWAHGYSKRFGAVYVDYPTGTRIPKASARWYAEVARTGVLPTA | soluble |
| MSLGSAIETLERLLKKRLRVPQEQLDTNPWLLNCANGTVDLRTGTLKAHRPEDYITRVVPLNFDPKATAPEFITTLARITCEEGQAGKPLCAFLQRWFGYCATGEVREQKFAVLYGDGNNGKSTLLDLITGILGRYSGVAAPGLLTGKNGPQHPNAIADLAGRRMVTTHESGEGEVLREDFVKQATGGDTLKARYLYGEFFEFKPTHKLQLLTNHKPAIKGQDSGIWRRIMLIPFKAKFDAAEGEEIGNGKYPRDMRIAEKLAAEREGVLAWIVAGAVEWYKNGLRPPDIVLAASEDYKEEQDRVGQFIDEECELGVEKEEKLSTPMGGGLYPAYTQWCKASGVCALSKVRFLGGLERRVPGFKKKVTKETVGAGKRREFVVIQGVALVDADEGHHHHHH | not soluble |
| MNHAQLRRVTAESFAHYRHGLAQLLFETVHGGASVGFMADLDMQQAYAWCDGLKADIAAGSLLLWVVAEDDNVLASAQLSLCQKPNGLNRAEVQKLMVLPSARGRGLGRQLMDEVEQVAVKHKRGLLHLDTEAGSVAEAFYSALAYTRVGELPGYCATPDGRLHPTAIYFKTLGQPT | soluble |
| MHTQRAGLSAIVATYRYQLATGVVYRDISSTIATEKIPFVENAVLKERAFIETIKQHQEPQRRIPRPVDSYVMLHSNARITTSRVIPQHKYKVTAKNPCRSIKRNAFQTAPSQTQLFISVNNRWLGLEHHHHHH | not soluble |
| MGNYLLRKLSCLGENQKKPKKGNPDEERKRQEMTTFERKLQDQDKKSQEVSSTSNQENENGSGSEEVCYTVINHIPHQRSSLSSNDDGYENIDSLTRKVRQFRERSETEYALLRTSVSRPCSCTHEHDYEVVFPH | soluble |
| RRTAEAERDRLNELLQIFTAAVPGVVYAKDLEGRMLVANRGTAELVGKPPEFFIGKTDLEFLDDEQQARVLMETDQRIMQSNVSEQIEEKVNLADGSAAIWLSTKAPLLDRNGDVIGLIGSSIDVT | not soluble |
| MAHHHHHHMRKAVRALQRRASQQAREVAVAANDMDGETATTQRPSFSLFWVQLTQAKVDVVLPPAQPPTPSAEVEAEEESETAERAAHAGHGGSRDTASAHTAAQFRRVHDTNRRVLRIIEACPDETLIVVLAGRCDGEAGGNHFSRAQGTCFAFVKDSSAPGPRPEELTKLTDENNVSALPRASAGGAAVDNIPLQDASALSTAAVPHSVDRETAMVEHTPLACQQQ | soluble |
| MSAFDIVLREGTVVDGTGADPFVADVAISGGRIAAIGPNLSRGTTEINASGQIVTPGFVDLHTHYDGQVTWDNRLAPSSYHGVTTAVIGNCGVGFAPCRRDAASRDAMVRLMEGVEDIPHPVLTEGLPWTWETFPDYLDFLASRTYDIDVAAYVPHAPLRVYVMGQRGADREPATQTDIAEMCRLLEQALDRGALGIATSRSLFHRSSDGTAIPTYQAAQAELMAFAEVLRAKGKGVFQIVEDIHVPGASLDNMRELARTSGRPLTFSIGTGNTGPYGYPRLLDELAAANAEGLVMKGQLMPRGIGMILGFELTLNPFYTTSTFARLAPLPLAERLEQLRRPEIRAAILSEPMDPDPALVLGRAVRDFDHMFLLGDDPDYEQPPERSIAGRAREAGITPEELAYDVMTEGESGGLLYLAMANYADGSLDAVGDILSHPDVVLGLGDGGAHVGTICDASYSTFALCHWARDRQRGRKTVADMVHRMTQATARVIGLEDRGELAVGKRADINVIDLAQLALRPPQVCHDLPAGGRRLIQRATGYSLTMLAGEIVLRDDEPTGLLPGRLIRASLEHHHHHH | not soluble |
| MPQYKLYYFNLRGWAEPARQLFKLAHVEFEDVRIENGTPEWGALKPKTPFGQLPFLSVDGFEIPQSAAILRYLAKKFGYAGKTSEEEAWVDAIVDQFKDFVTPLRQLIMAQRSGNAEEIERIQKEVFAPARDTFFKILNGILEKSKSGFLVGDGVTWADLVIADILTTMEMLGVFDKHGEEQKLAALREKVNEIPEIKEHNSSRPDSVV | not soluble |
| MGSDKIHHHHHHMSVFATFASQTRIQAILVMQTALSVSSRLSLEPTGTDMPVIKGPDGLPFIPGSSIKGVVRFQVERILRTWDRRPDFWACDPFDAPCIPAKKKEQLLNDAETDQSFAETVWKESCTACRLFGSPWFAGRVAFRDAYLLNPEDLPTLTQIRDGVGIDRDLGTARSGIKYDFETVIPGARFGLEILAENLEEWEIGFLLTVLRLWEEGGIAIGGKTTRGPGWGKLQEIKIQRVGISNLMDYLLERKSSEVAATQFLQTFREWLKERGAGDA | not soluble |
| MDWGTELWDQFEVLERHTQWGLDLLDRYVKFVKERTEVEQAYAKQLRSLVKKYLPKRPAKDDPESKFSQQQSFVQILQEVNDFAGQRELVAENLSVRVCLELTKYSQEMKQERKMHFQEGRRAQQQLENGFKQLENSKRKFERDCREAEKAAQTAERLDQDINATKADVEKAKQQAHLRSHMAEESKNEYAAQLQRFNRDQAHFYFSQMPQIFDKLQDMDERRATRLGAGYGLLSEAELEVVPIIAKCLEGMKVAANAVDPKNDSHVLIELHKSGFARPGDVEFEDFSQPMNRAPSDSSLGTPSDGRPELRGPGRSRTKRWPFGKKNKTVVTEDFSHLPPEQQRKRLQQQLEERSRELQKEVGQREALKKMKDVYEKTPQMGDSASLEPQIAETLSNIERLKLEVQKYEAWLAEAESRVLSNRGDSLSRHARPPDPPASAPPDSSSNSASQDTKESSEEPPSEESQDTPIYTEFDEDFEEEPTSPIGHCVAIYHFEGSSEGTISMAEGEDLSLMEEDKGDGWTRVRRKEGGEGYVPTSYLRVTLN | soluble |
| MGSDKIHHHHHHMDVVLHIGAHRTASSALQHHLSRNRSKLAEAGVVYWGPKITRGGLFRGAIGGVEGALPWQERRFGKRCALRAEAVRQTGATHLMISDENMVGSLRGALEFTRLYSDAGRRIASYAHGFKTHRMTVALCIRDYADWWVSAMAFRLPRGGPLPRTQARERLVTQPRRWRHVVEDLAQALPDARLVVWSYEASAHALPTLVGDLTGVASADDRAGPRNLRPTAADLHDLMDACDIDPDMFHWPDGQFMPFTVHETEALRAQYQEDLAWLRAGARGFADYIDAPSAQTEAPTDLGRGNPDDGEHRQLA | not soluble |
